The chains are these.
B1: CRYL1 (parent)
chain: RNALENIRKEMKLLEQAGSLKGSL
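Note: lentivirally expressed fusions sorted by FACS into six bins by GFP to DsRed ratio, PSI derived from sequencing read proportions per bin multiplied by bin number.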

Variants of B1 are the subject of this data set. Put plainly: protein stability index of a GFP-peptide fusion (GPS, HEK-293T) (PSI 1-6); higher = more stable. As to conditions: c terminus: a fixed tail appended.
Consider RNALENIRKEMKLLEQSGSLKGSL, for which the protein stability index worked out at 3.72.
Consider RNALENIRKEMKLLEQGGSLKGSL, for which the protein stability index was 3.4.
As for RNALENIRKEMKLLEQPGSLKGSL, the figure is 3.5; as for RNALENIRKEMKLLEQHGSLKGSL, 3.06.
As for RNALENIRKEMKLLEQIGSLKGSL, the figure is 2.71; as for RNALENIRKEMKLLEQCGSLKGSL, 2.48; as for RNALENIRKEMKLLEQTGSLKGSL, 3.4.
Next, RNALENIRKEMKLLEQNGSLKGSL: 3.62; RNALENIRKEMKLLEQYGSLKGSL: 2.32.
On to RNALENIRKEMKLLEQKGSLKGSL, for which the protein stability index was 3.51.
Next, RNALENIRKEMKLLEQEGSLKGSL: 3.84; RNALENIRKEMKLLEQLGSLKGSL: 3.18; RNALENIRKEMKLLEQQGSLKGSL: 4.01.
Next, RNALENIRKEMKLLEQFGSLKGSL: 2.22.
As for RNALENIRKEMKLLEQRGSLKGSL, the figure is 3.38; as for RNALENIRKEMKLLEQDGSLKGSL, 3.97; as for RNALENIRKEMKLLEQMGSLKGSL, 3.32.
For the variant RNALENIRKEMKLLEQVGSLKGSL, the protein stability index worked out at 3.58.
As for RNALENIRKEMKLLEQWGSLKGSL, the figure is 2.33; as for RNALENIRKEMKLLEQAGWLKGSL, 2.03.
As to RNALENIRKEMKLLEQAGYLKGSL, the protein stability index is 2.17.
Next, RNALENIRKEMKLLEQAGFLKGSL: 1.9; RNALENIRKEMKLLEQAGGLKGSL: 3.12.
As for RNALENIRKEMKLLEQAGLLKGSL, the protein stability index turned out to be 2.36.
Turning to RNALENIRKEMKLLEQAGPLKGSL, the protein stability index was found to be 3.54.
In the case of RNALENIRKEMKLLEQAGVLKGSL, the protein stability index amounted to 2.66.
Consider RNALENIRKEMKLLEQAGNLKGSL, for which the protein stability index was 3.66.
Next, RNALENIRKEMKLLEQAGALKGSL: 2.51; RNALENIRKEMKLLEQAGELKGSL: 4.14.
Regarding RNALENIRKEMKLLEQAGMLKGSL, the protein stability index was 2.56.
Next, RNALENIRKEMKLLEQAGKLKGSL: 3.42; RNALENIRKEMKLLEQAGTLKGSL: 3.22.
As for RNALENIRKEMKLLEQAGRLKGSL, the figure is 3.08; as for RNALENIRKEMKLLEQAGHLKGSL, 3.04; as for RNALENIRKEMKLLEQAGQLKGSL, 2.85.
Regarding RNALENIRKEMKLLEQAGDLKGSL, the protein stability index was determined as 3.71.
Take RNALENIRKEMKLLEQAGILKGSL: the protein stability index was 2.62.
Next, RNALENIRKEMKLLFQAGSLKGSL: 2.9.
Take RNALENIRKEMKLLDQAGSLKGSL: the protein stability index stood at 3.63.
As to RNALENIRKEMKLLHQAGSLKGSL, the protein stability index stood at 2.77.
As for RNALENIRKEMKLLRQAGSLKGSL, the figure is 3.63; as for RNALENIRKEMKLLTQAGSLKGSL, 3.08; as for RNALENIRKEMKLLCQAGSLKGSL, 3.2.
Consider RNALENIRKEMKLLQQAGSLKGSL, for which the protein stability index worked out at 3.57.
Next, RNALENIRKEMKLLWQAGSLKGSL: 1.49.
Next, RNALENIRKEMKLLNQAGSLKGSL: 3.16.
Next, RNALENIRKEMKLLMQAGSLKGSL: 2.87.
In the case of RNALENIRKEMKLLGQAGSLKGSL, the protein stability index came out at 3.05.
Next, RNALENIRKEMKLLKQAGSLKGSL: 2.48.
As for RNALENIRKEMKLLLQAGSLKGSL, the protein stability index was determined as 2.16.
Next, RNALENIRKEMKLLVQAGSLKGSL: 2.39.
As for RNALENIRKEMKLLPQAGSLKGSL, the figure is 3.37; as for RNALENIRKEMKLLIQAGSLKGSL, 1.71.
Consider RNALENIRKEMKLLSQAGSLKGSL, for which the protein stability index was found to be 2.58.
Consider RNALENIRKEMKLLAQAGSLKGSL, for which the protein stability index is 2.17.
As for RNALENIRKEMKLLYQAGSLKGSL, the figure is 2.21; as for RNALENIRKEMKLLEQADSLKGSL, 3.64.
As for RNALENIRKEMKLLEQAFSLKGSL, the figure is 2.13; as for RNALENIRKEMKLLEQARSLKGSL, 3.23; as for RNALENIRKEMKLLEQAKSLKGSL, 3.52.
As for RNALENIRKEMKLLEQALSLKGSL, the figure is 1.83; as for RNALENIRKEMKLLEQAISLKGSL, 1.98.
Consider RNALENIRKEMKLLEQAMSLKGSL, for which the protein stability index was 2.12.
With RNALENIRKEMKLLEQANSLKGSL, the protein stability index stood at 3.84.
Next, RNALENIRKEMKLLEQAYSLKGSL: 2.12; RNALENIRKEMKLLEQAASLKGSL: 4.
As for RNALENIRKEMKLLEQAQSLKGSL, the figure is 3.48.
Next, RNALENIRKEMKLLEQAWSLKGSL: 2.37; RNALENIRKEMKLLEQAVSLKGSL: 2.8; RNALENIRKEMKLLEQAHSLKGSL: 3.08.
RNALENIRKEMKLLEQAESLKGSL: the protein stability index was found to be 3.58.
In the case of RNALENIRKEMKLLEQASSLKGSL, the protein stability index was determined as 3.41.
Next, RNALENIRKEMKLLEQAPSLKGSL: 4.33; RNALENIRKEMKLLEQATSLKGSL: 3.39.
As to RNALENIRKEMKLLEQAGSLGGSL, the protein stability index was 2.56.
Regarding RNALENIRKEMKLLEQAGSLLGSL, the protein stability index amounted to 2.37.
Next, RNALENIRKEMKLLEQAGSLEGSL: 3.93; RNALENIRKEMKLLEQAGSLFGSL: 2.35; RNALENIRKEMKLLEQAGSLQGSL: 3.18.
As to RNALENIRKEMKLLEQAGSLCGSL, the protein stability index came out at 3.3.
For the variant RNALENIRKEMKLLEQAGSLIGSL, the protein stability index turned out to be 2.4.
With RNALENIRKEMKLLEQAGSLYGSL, the protein stability index turned out to be 2.78.
As for RNALENIRKEMKLLEQAGSLTGSL, the figure is 3.6.
With RNALENIRKEMKLLEQAGSLVGSL, the protein stability index amounted to 2.73.
RNALENIRKEMKLLEQAGSLDGSL: the protein stability index was 3.55.
For the variant RNALENIRKEMKLLEQAGSLSGSL, the protein stability index is 3.46.
For the variant RNALENIRKEMKLLEQAGSLRGSL, the protein stability index was 2.68.
For RNALENIRKEMKLLEQAGSLNGSL, the protein stability index turned out to be 3.34.
For the variant RNALENIRKEMKLLEQAGSLPGSL, the protein stability index turned out to be 2.79.
Next, RNALENIRKEMKLLEQAGSLWGSL: 2.17; RNALENIRKEMKLLEQAGSLAGSL: 2.71.
Next, RNALENIRKEMKLVEQAGSLKGSL: 3.85; RNALENIRKEMKLKEQAGSLKGSL: 4.03.
Next, RNALENIRKEMKLTEQAGSLKGSL: 3.79.

These data come from the supplement of paper PMC10567573.
